Assay results as given in publication PMC3232166, “Seleno-detergent MAD phasing of leukotriene C4 synthase in complex with dodecyl-β-D-selenomaltoside” (Acta Crystallographica Section F, 2011).

Molecular target: the molecule itself
Assay: crystal structure; LTC4S with SeDDM and GSH, sitting-drop vapour diffusion at 293 K, 0.1 M MES-NaOH pH 6.5, 1.6 M ammonium sulfate, 0.4 M MgCl2; space group F23, Se MAD phasing, refined at 3.2 A

B1: Human leukotriene C4 synthase (enzyme)
chain: MKDEVALLAAVTLLGVLLQAYFSLQVISARRAFRVSPPLTTGPPEFERVYRAQVNCSEYFPLFLATLWVAGIFFHEGAAALCGLVYLFARLRYFQGYARSAQLRLAPLYASARALWLLVALAALGLLAHFLPAALRAALLGRLRTLLPWA
notes: Leukotriene C4 synthase, human; 17 kDa monomer; construct as described previously (Ago et al., 2007; Saino et al., 2011); also called LTC4S
  stoichiometry N: 3
